Reference: publication PMC3537504

Key:
[1] = target: MBP-αII-cardi+ (MBP fusion of repeats 18-21 of αII-spectrin with the 21-amino acid cardi+ insert) (rat); assay: far-Western, overlay or dot blot
[2] = target: GST-βII-spectrin-1-4 (GST fusion of repeats 1-4 of βII-spectrin) (rat); assay: SPR

Substance	binding relative to the αII-cardi− protein (blot overlay, densitometry) [1]	Kd [2]	fold lower binding (response units at saturation) than MBP-αII-cardi− [2]
GST-βII-spectrin-1-4 (GST fusion of repeats 1-4 of βII-spectrin) (domain or fragment)	0.5 fold	–	–
MBP-αII-cardi+ (MBP fusion of repeats 18-21 of αII-spectrin with the 21-amino acid cardi+ insert) (domain or fragment)	–	1.09 nM	2 fold
MBP-αII-cardi− (MBP fusion of repeats 18-21 of αII-spectrin without the cardi+ insert) (domain or fragment)	–	0.57 nM	–
